These results are taken from US20080139472A1, “UPREGULATING BDNF LEVELS TO MITIGATE MENTAL RETARDATION” (THE REGENTS OF THE UNIVERSITY OF CALIFORNIA, priority 2006, published 2008).

“Also recorded” adds a separate entry of the source.

Holding throughout (type): cell-based, mouse
In one experiment the test system is NMDA receptor. Kind of experiment: NMDA receptor contribution to theta burst responses in hippocampal slices, estimated with APV. The procedure: (§1) Transverse hippocampal slices (350 m) through the mid-septotemporal hippocampus were prepared with a vibratome (VT 1000 S; Leica, Bannockbum, Ill.) in ice-cold artificial CSF [ACSF; containing (in mM) 124 NaCl, 3 KCl, 1.25 KH2PO4, 3.4 CaCl2, 2.5 MgSO4, 26 NaHCO3, and 10 dextrose, pH 7.35) from young (2-3 months old) adult Fmr1-KO and wild-type (WT) mice (unless otherwise specified, chemicals were from Sigma, St. Louis, Mo.). […] Related to this, pharmacological results obtained with such slices accurately predict effects obtained with chronic recordings or biochemical assays from behaving animals (Staubli et al., 1994; Lauterbom et al., 2003), a point that is of importance to those aspects of the present work concerned with therapeutic strategies. All experiments were initiated between 9:00 and 11:00 A.M., and slices from Fmr1-KO and WT animals were randomized across two chambers and run simultaneously. Slices were maintained at 31±1° C. in an interface recording chamber with the slice surface exposed to warm, humidified 95% O2/5% CO2 and continuous ACSF perfused at a rate of 60-70 ml/hr. Slices equilibrated to the chamber for at least 1 h before recordings were initiated. […] Evoked responses were digitized (NacGather 2.0; Theta Burst, Irvine, Calif.) and analyzed for amplitude and fall slope; data are presented as a percentage of baseline. Responses to individual theta bursts were analyzed to determine the burst area; to evaluate treatment effects on theta train facilitation, responses to each burst in the theta train are presented as a percentage change from the area of the initial burst response. […] Statistical significance was assessed using either two-way repeated-measures ANOVA to compare values that were stable over time or Mann-Whitney Utest to compare groups expressing different decay rates (i.e., values not stable over time); statistical analyses were performed using SPSS version 15.0 (SPSS, Chicago, Ill.) Variance for physiology experiments is expressed as SEM.

Experiment [1] relates to hippocampal slices from WT mice. Kind of experiment: LTP (fEPSP slope) after theta burst stimulation in field CA1 of hippocampal slices from wild-type mice. The procedure: as §1, with “SEM. […]” for “SEM.”
Experiment [2] has as its system hippocampal slices from Fmr1-KO mice. Kind of experiment: LTP (fEPSP slope) after theta burst stimulation in field CA1 of hippocampal slices from Fmr1-KO mice. The settings on record: for effect on TBS-induced increase in fEPSP slope (30-40 min post-TBS): compared with ACSF alone. How it is done: Transverse hippocampal slices (350 m) through the mid-septotemporal hippocampus were prepared with a vibratome (VT 1000 S; Leica, Bannockbum, Ill.) in ice-cold artificial CSF [ACSF; containing (in mM) 124 NaCl, 3 KCl, 1.25 KH2PO4, 3.4 CaCl2, 2.5 MgSO4, 26 NaHCO3, and 10 dextrose, pH 7.35) from young (2-3 months old) adult Fmr1-KO and wild-type (WT) mice (unless otherwise specified, chemicals were from Sigma, St. Louis, Mo.). […] Related to this, pharmacological results obtained with such slices accurately predict effects obtained with chronic recordings or biochemical assays from behaving animals (Staubli et al., 1994; Lauterbom et al., 2003), a point that is of importance to those aspects of the present work concerned with therapeutic strategies. All experiments were initiated between 9:00 and 11:00 A.M., and slices from Fmr1-KO and WT animals were randomized across two chambers and run simultaneously. Slices were maintained at 31±1° C. in an interface recording chamber with the slice surface exposed to warm, humidified 95% O2/5% CO2 and continuous ACSF perfused at a rate of 60-70 ml/hr. Slices equilibrated to the chamber for at least 1 h before recordings were initiated. A single glass electrode (2 M NaCl) was placed within the mid proximodistal CA1b stratum radiatum and was used to record field EPSPs (fEPSPs) from the apical dendrites of CA1 pyramidal cells. Orthodromic stimulation was delivered at two sites (CA1a and CA1c) in the apical Schaffer collateral-commissural projections to provide convergent activation of CA1b pyramidal cells. Pulses were administered in an alternating manner to the two electrodes at 0.05 Hz by using a current that elicited a 50% maximal response. […] Input-output and paired-pulse facilitation assays were performed as described previously (Rex et al., 2005). Synaptic potentiation was induced with a train of 5 or 10 theta bursts (each containing four pulses at 100 Hz, with an interburst interval of 200 ms) Carson et al., 1986; Kramar and Lynch, 2003; Rex et al., 2005). Evoked responses were digitized (NacGather 2.0; Theta Burst, Irvine, Calif.) and analyzed for amplitude and fall slope; data are presented as a percentage of baseline. Responses to individual theta bursts were analyzed to determine the burst area; to evaluate treatment effects on theta train facilitation, responses to each burst in the theta train are presented as a percentage change from the area of the initial burst response. Unless otherwise stated, group size values presented in the figures represent number of slices tested. Generally two to three slices were tested from a given mouse, and no fewer than three mice were used in any group; for statistical analyses, each slice was considered an individual n. Statistical significance was assessed using either two-way repeated-measures ANOVA to compare values that were stable over time or Mann-Whitney Utest to compare groups expressing different decay rates (i.e., values not stable over time); statistical analyses were performed using SPSS version 15.0 (SPSS, Chicago, Ill.) Variance for physiology experiments is expressed as SEM.
A recirculating perfusion system (oxygenated and heated as above) with a peristaltic pump (60 ml/hr; MasterFlex C/L; Cole-Parmer, Vernon Hills, Ill.) was used for experiments in which purified BDNF (catalog #GF029; Millipore, Temecula, Calif.) was administered to slices. The purity of the recombinant (mature) BDNF was confirmed using Western blot analyses: a single 14 kDa band was observed under denaturing conditions. Slices received BDNF for 30 min to 1 h before physiological recording. BDNF stock was prepared in ddH2O at a concentration of 50 ng/ml (this is equivalent to 1.85 nM based on the 27 kDa size of the dimer) and stored at −20° C. Control slices from the same animals received ACSF alone in parallel on a second recirculating interface chamber. […]

The mark [3] stands for this setting: WT slices, pair of theta bursts, mean of 6 slices.
Setting [4] is: Fmr1-KO slices, five theta bursts.

With `N[C@@H](CCCP(=O)(O)O)C(=O)O` [APV], the “effect of APV on theta burst responses” value in the experiment with NMDA receptor (Fmr1-KO slices, pair of theta bursts with and without APV) is “marked, and reversible, depression”. Also, in the experiment with NMDA receptor (setting [3]), the “effect of APV on the first burst response” value is “slight reduction in the half-width of the fourth fEPSP” and the “effect of APV on the second burst response” value was “reduced the size of fEPSPs 2 through 4”.

B1: BDNF: purified recombinant (mature) BDNF, catalog #GF029; Millipore; single 14 kDa band under denaturing conditions (protein, UniProt P23560 19-247, looked up)
Neurotrophic factor BDNF …: APMKEANIRGQGGLAYPGVRTHGTLESVNGPKAGSRGLTSLADTFEHVIEELLDEDQKVRPNEENNKDADLYTSRVMLSSQVPLEPPLLFLLEEYKNYLDAANMSMRVRRHSDPARRGELSVCDSISEWVTAADKKTAVDMSGGTVTVLEKVPVSKGQLKQYFYETKCNPMGYTKEGCRGIDKRHWNSQCRTTQSYVRALTMDSKKRIGWRFIRIDTSCVCTLTIKRGR
For B1, the “potentiation (fEPSP slope, percent above baseline)” value in experiment [1] (BDNF 50 ng/ml bath-applied, five theta bursts, minutes 30-40 post-TBS, mean ±SEM) was 51.3±8.6%. Further, the “effect on facilitation of burst responses during theta trains” value in experiment [1] (BDNF 50 ng/ml vs ACSF) is “did not measurably affect”; in experiment [2] (Fmr1-KO slices, BDNF 50 ng/ml vs ACSF and heat-inactivated BDNF), “did not measurably affect”. In addition, the “effect on input-output curves” value in experiment [1] (BDNF 50 ng/ml vs ACSF alone) is listed as “did not alter”. Also, the LTP above baseline in experiment [2] (Fmr1-KO slices treated with BDNF 15 ng/ml) is recorded as greater than 40%. Also, in experiment [2] (Fmr1-KO slices, BDNF 2 nM from 30 min before theta burst stimulation, five theta bursts, 40-50 min post-TBS), the “slope of the fEPSP enhanced above baseline” value was 44%. Further, the “degree of LTP (fEPSP slope, percent above baseline)” value in experiment [2] (Fmr1-KO slices, BDNF 50 ng/ml bath-applied, five theta bursts, minutes 30-40 post-TBS, mean ±SEM) came out at 42.1±8.6%. Besides, the “effect on input-output curves / baseline transmission (fEPSP amplitude)” value in experiment [2] (Fmr1-KO slices, BDNF 50 ng/ml vs ACSF alone or heat-inactivated BDNF) is listed as “no effect; also recorded: did not alter”. The “restoration of LTP” value in experiment [2] (Fmr1-KO slices, brief infusion of 50 ng/ml BDNF, threshold theta burst stimulation) is on record as “fully restored LTP”. Moreover, the “effect on TBS-induced increase in fEPSP slope (30-40 min post-TBS)” value in experiment [2] (setting [4]) is listed as “enhanced”.

B2: heat-inactivated BDNF: BDNF heat-inactivated by boiling for 5 min immediately before use; specificity control (protein, UniProt P23560 19-247, looked up)
Neurotrophic factor BDNF …: B1 Neurotrophic factor BDNF …
modifications: heat-inactivated
notes: specificity control
Consider B2, for which the “effect on TBS-induced increase in fEPSP slope (30-40 min post-TBS)” value in experiment [2] (setting [4]) is “no effect”.
